Measured values from US20190276499A1, “Protein VII Fragments and Methods of Use Thereof for the Treatment of Inflammatory Disorders” (priority 2016, published 2019).
Where a chain is given by its changes, count along the chain named.

Assays:
cellular chromatin = assay: Chromatin appearance in inducible cell lines (immunofluorescence, DAPI); format: cell-based; conditions: inducible expression
Source text: Primary small airway epithelial cells (SAECs), U2OS, HeLa, 293, THP-1 and A549 cells were obtained from the American Tissue Culture Collection (ATCC) and grown according to the provider's instructions. Acceptor cells for generation of inducible cell lines were used as reported (Khandelia et al. (2011) Proc. Natl. Acad. Sci., 108:12799-12804). Protein VII, preVII and V were cloned from genomic DNA isolated from HeLa cells infected with adenovirus type 5 and inserted into the inducible plasmid cassette with a C-terminal HA tag using restriction enzymes BsrGI and AgeI. Positive clones were selected in DH5a cells, sequenced, and transfected into A549, U2OS or HeLa acceptor cells along with plasmid expressing the Cre recombinase. Recombined clones were selected by puromycin resistance (1 μg/mL) and induced with doxycycline (0.2 μg/mL) to express the desired protein. Protein expression was verified by immunofluorescence and western blot. All figures shown are after 4 days of induction unless otherwise stated. Protein VII and preVII were also verified by HPLC purification and mass spectrometry analysis. Point mutations were generated by gene synthesis from Genewiz.
Cells were grown on glass coverslips in 24-well plates and either infected or induced with doxycycline (0.2 μg/mL). […]

HMGB1 [1] = molecular target: T1, HMGB1 (Homo sapiens, UniProt P09429); assay: In vitro binding assay: recombinant protein VII-His with HMGB1-GST, cobalt resin pull-down; conditions: equimolar HMGB1-GST and protein VII-His
T1 sequence (P09429 1-215): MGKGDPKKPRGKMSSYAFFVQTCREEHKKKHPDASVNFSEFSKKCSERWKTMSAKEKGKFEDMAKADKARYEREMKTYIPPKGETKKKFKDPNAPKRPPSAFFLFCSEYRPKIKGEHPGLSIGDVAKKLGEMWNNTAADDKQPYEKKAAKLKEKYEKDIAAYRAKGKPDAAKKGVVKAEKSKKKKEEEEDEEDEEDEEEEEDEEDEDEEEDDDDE
Protocol: HMGB1-GST (Abnova) or GST (Sigma) were combined with recombinant protein VII-His at equimolar ratios and incubated at 4° C. for 1 hour. Complexes were then mixed with a cobalt resin (ThermoScientific 89964) to bind protein VII-His and any associated protein and washed three times in the binding buffer (50 mM Tris pH 8, 300 mM NaCl, 0.1% IGEPAL). The beads were then boiled in sample buffer, separated on a 4-12% NuPage gel and visualized by coomassie staining.

DNA = assay: Gel shift of recombinant protein VII-His with 195 bp DNA; format: binding; conditions: purified recombinant protein
Protocol: Gel shift and MNase digestion assays were carried out as described (Falk et al. (2015) Science 348:699-703; Hasson et al. (2013) Nat. Struct. Mol. Biol., 20:687-695; Sekulic et al. (2010) Nature 467:347-351). Briefly, nucleosomes were reconstituted by incubating purified recombinant histones with ‘601’ DNA of either 195 or 147 bp over a series of dialysis. Recombinant protein VII-His was then combined with nucleosomes at various molar ratios, incubated at room temperature for 15 minutes, and analyzed by native gel electrophoresis. Complexes were also digested with MNase (Affymetrix) by addition of 1 unit per μg of DNA for 147 bp nucleosome experiments and 0.1 unit per μg of DNA for 195 bp nucleosome experiments, incubated at 22° C. for varying amounts of time followed by the addition of EGTA and guanidine thiocyanate to stop the reaction. The DNA fragments were then purified using a MinElute PCR purification kit (Qiagen) and analyzed on an Agilent 2100 Bioanalyzer as described (Falk et al. (2015) Science 348:699-703).

HMGB2 = molecular target: T2, HMGB2 (Homo sapiens, UniProt P26583); assay: Release assay of HMGB2 in THP-1 cells; format: cell-based; conditions: PMA-treated THP-1 cells, LPS plus nigericin
T2 construct: endogenous in cells; host or cells: THP-1 (PMA-differentiated)
T2 sequence (P26583 1-209): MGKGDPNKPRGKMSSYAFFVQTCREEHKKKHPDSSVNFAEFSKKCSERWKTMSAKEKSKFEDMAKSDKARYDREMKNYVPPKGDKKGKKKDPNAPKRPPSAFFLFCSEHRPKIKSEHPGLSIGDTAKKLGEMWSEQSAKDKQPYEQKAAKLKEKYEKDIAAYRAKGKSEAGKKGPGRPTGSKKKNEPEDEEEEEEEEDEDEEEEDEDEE
Protocol: (§1) THP-1 cells were seeded at a density of 2×10^5 cells per well in a 24-well plate, and stimulated into macrophage-like cells by addition of 10 ng/mL PMA for 48 hours. Cells were washed in PBS and transduced with recombinant adenovirus vectors expressing only GFP or protein VII-GFP such that >90% of cells were GFP positive. At 48 hours post transduction, cells were washed and 200 μL of serum free RPMI was added. To stimulate the inflammasome, LPS (Sigma-Aldrich L2880) with a final concentration of 0.5 μg/mL was added to wells and incubated for 2 hours, then nigericin (Sigma-Aldrich N7143) was added with a final concentration of 10 μM for 1 hour. Supernatants were collected and proteins precipitated overnight at 4° C. with a final concentration of 20% trichloroacetic acid (Sigma), washed with acetone, dried, and resuspended in 1×sample buffer with reducing agent (Invitrogen). For ELISA analysis, supernatants were harvested directly and HMGB1 content was detected by the manufacturer's instructions (Chondrex 6010). Cells were also harvested by the addition of 1×sample buffer with reducing agent (Invitrogen) and boiled. Supernatants and lysates were analyzed together by western blot.

LPS induced lung injury = assay: Murine model of LPS induced lung injury, BAL fluid analysis; format: in vivo, mouse; conditions: 24 hours after LPS exposure, versus mice expressing GFP
Protocol: All mice were housed in SPF conditions. All studies in mice were carried out in accordance with the recommendations in the Guide for the Care and Use of Laboratory Animals of the National Institutes of Health. C57BL/6J male mice aged 8-10 weeks were used for experiments. Mice were sedated with ketamine and xylazine. Once sedated, mice underwent orotrachial intubation, as described (Das et al. (2013) J. Vis. Exp., (73):e50318), with a 20G angiocatheter from BD (Franklin Lakes, N.J.). Mice subsequently received 5e10 GC of recombinant adenovirus expressing VII-GFP or GFP purified as described above. Four days after infection, mice were exposed to aerosolized LPS, 3 mg/mL for 30 minutes as described (Jeyaseelan et al. (2004) Infect. Immun., 72:7247-7256). One day after LPS exposure, BAL, and lung tissue were harvested as detailed (Nick et al. (2000) J. Immunol., 164:2151-2159) and examined for HMGB1 content (ELISA, Chondrex 6010) and neutrophil count (hematoxylin and eosin stain kit EMD 65044/93). Immunostaining was carried out using standard methods. A minimum of four biological replicates were used for each condition studied. Mice were assigned a random number and color at the start of the experiment and were randomized. Technicians carrying out the experiments were blinded to the identity of the samples. Tissue samples were assigned a random study number such that the technician performing the analysis was blinded. Unblinding for the purpose of data analysis occurred only after all data had been collected.

mouse HMGB1 = molecular target: T3, mouse HMGB1 (Mus musculus, UniProt P63158); assay: Mouse embryonic fibroblast (MEF) cells transduced to express protein VII-GFP: immunofluorescence and salt fractionation; format: cell-based
T3 construct: endogenous in cells; host or cells: mouse embryonic fibroblasts (MEF)
T3 sequence (P63158 1-215): T1 sequence (P09429 1-215) with E189D, D202E
Protocol: Cells were grown on glass coverslips in 24-well plates and either infected or induced with doxycycline (0.2 μg/mL). Cells were harvested for immunofluorescence at the indicated time points, washed in phosphate-buffered saline (PBS), fixed in 4% paraformaldehyde for 15 minutes and post-fixed with 100% ice-cold methanol for 5 minutes. Coverslips were then blocked and stained as described (Lilley et al. (2011) PLoS Pathog., 7:e1002084) and mounted using ProLong Gold Antifade Reagent (Life Technologies). Immunofluorescence was visualized using a Zeiss LSM Confocal microscope and ZEN 2011 software. Images were processed using ImageJ and assembled with Adobe CS6. All scale bars show in the Figures are 10 μm unless otherwise stated.
Salt fractionation of nuclei was adapted from established protocols (Zaret, K. (2005) Micrococcal nuclease analysis of chromatin structure. Curr. Protoc. Mol., Biol. Chapter 21, Unit 21.1; Teves et al. (2012) Methods Mol. Biol., 833:421-432). […] The final pellet was resuspended in 400 μL ddH2O and all samples were analyzed together by western blot. An aliquot of each supernatant was set aside for DNA purification using a PCR purification kit (Qiagen) and analyzed by agarose gel electrophoresis. […]

HMGB1 [2] = molecular target: T1, HMGB1; assay: Release assay of HMGB1 in THP-1 cells; format: cell-based; parameters: endogenous in cells; conditions: PMA-treated THP-1 cells, LPS plus nigericin
Protocol: as §1

PRM1: human protamine PRM1, a basic protein involved in sperm DNA compaction (ARYRCCRSQSRSRYYRQRQRSRRRRRRSCQTRRRAMRCCRPRYRPRCRRH; UniProt P04553 2-51, looked up) [reference compound]
Effect on chromatin appearance (cellular chromatin): did not affect chromatin appearance

B1: recombinant protein VII: Ad5 protein VII with C-terminal hexahistidine tag, purified from E. coli (protein)
chain: AKKRSDQHPVRVRGHYRAPWGAHKRGRTGRTTVDDAIDAVVEEARNYTPTPPPVSTVDAAIQTVVRGARRYAKMKRRRRRVARRHRRRPGTAAQRAAAALLNRARRTGRRAAMRAARRLAAGIVTVPPRSRRRAAAAAAAAISAMTQGRRGNVYWVRDSVSGLRVPVRTRPPRN
modifications: left off: small tags and cut ends
notes: Ad5 protein VII with C-terminal hexahistidine tag, purified from E. coli
Direct binding of recombinant protein VII to HMGB1 in vitro (HMGB1 [1]): Direct binding
DNA binding (DNA): binds to DNA

B2: protein VII-GFP (protein)
chain: B1 chain
modifications: left off: large carriers
HMGB2 in supernatants (HMGB2): sufficient to inhibit HMGB1 and HMGB2 release
HMGB1 in BAL fluid (LPS induced lung injury): decreases HMGB1
Neutrophils in BAL fluid (LPS induced lung injury): significantly fewer
Relocalization of mouse HMGB1 (mouse HMGB1): sufficient to relocalize mouse HMGB1
Retention of mouse HMGB1 in the high salt fraction (mouse HMGB1): sufficient to retain mouse HMGB1 in the high salt fraction
HMGB1 in supernatants (HMGB1 [2]): sufficient to inhibit HMGB1 and HMGB2 release
